Where no end group is shown, it is not given here. [ ]: non-standard residue; d: D form. Tle = CC(C)(C)[C@H](N)C(=O)O; Ac6c = NC1(C(=O)O)CCCCC1; cyPen = not defined here; Sar = CNCC(=O)O
Tests used:
Assay in all cases: cell-based or functional assay
[1] = target: T1, human angiotensin 2 type 1 receptor (human, UniProt P30556 1-359)
T1 sequence (looked up): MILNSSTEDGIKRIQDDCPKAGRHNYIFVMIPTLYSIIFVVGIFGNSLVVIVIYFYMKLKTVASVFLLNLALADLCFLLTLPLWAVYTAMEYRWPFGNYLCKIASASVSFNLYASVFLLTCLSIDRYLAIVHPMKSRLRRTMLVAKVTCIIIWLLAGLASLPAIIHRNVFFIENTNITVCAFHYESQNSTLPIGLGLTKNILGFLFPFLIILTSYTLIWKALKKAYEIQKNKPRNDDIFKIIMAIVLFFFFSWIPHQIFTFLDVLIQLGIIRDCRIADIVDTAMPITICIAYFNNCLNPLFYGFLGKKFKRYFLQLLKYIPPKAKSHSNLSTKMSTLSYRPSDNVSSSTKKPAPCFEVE

[2] = target: T2, rat angiotensin 2 type 1 receptor (rat, UniProt P25095 1-359)
T2 sequence (looked up): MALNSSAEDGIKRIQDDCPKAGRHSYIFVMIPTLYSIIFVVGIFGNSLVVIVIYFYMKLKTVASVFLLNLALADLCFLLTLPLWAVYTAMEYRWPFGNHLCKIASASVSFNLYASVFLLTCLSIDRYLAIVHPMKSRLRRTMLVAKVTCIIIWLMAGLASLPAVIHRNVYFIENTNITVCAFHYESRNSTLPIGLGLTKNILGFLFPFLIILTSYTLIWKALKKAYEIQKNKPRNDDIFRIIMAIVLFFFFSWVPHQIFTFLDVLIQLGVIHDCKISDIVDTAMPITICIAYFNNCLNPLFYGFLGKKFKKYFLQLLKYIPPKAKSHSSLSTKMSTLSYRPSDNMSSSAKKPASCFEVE

[3] = target: T1, human angiotensin 2 type 1 receptor; remark: listed apart in the source
[4] = target: T2, rat angiotensin 2 type 1 receptor; remark: listed apart in the source

| Binder | IP1 G-protein assay EC50 [1] | IP1 G-protein assay Span [1] | IP1 G-protein assay pEC50 [1] | IP1 G-protein assay EC50 [2] | IP1 G-protein assay Span [2] | IP1 G-protein assay pEC50 [2] | beta-arrestin2 assay EC50 [3] | beta-arrestin2 assay Span [3] | beta-arrestin2 assay pEC50 [3] | beta-arrestin2 assay EC50 [4] | beta-arrestin2 assay Span [4] | beta-arrestin2 assay pEC50 [4] |
| --- | --- | --- | --- | --- | --- | --- | --- | --- | --- | --- | --- | --- |
| [Sar]RVY[Ac6c]HPW [SEQ ID NO: 54 (Sar-Arg-Val-Tyr-cyHex-His-Pro-Trp)] | > 1.3 nM | < 103 | < 9.2 | > 0.6 nM | < 104 | < 9.2 | > 3.2 nM | < 101 | < 8.5 | > 3.2 nM | < 105 | < 8.5 |
| [Sar]RVYPHPS [SEQ ID NO: 8 (Sar-Arg-Val-Tyr-Pro-His-Pro-Ser)] | 6310 nM | < 103 | < 9.2 | > 0.6 nM | – | > 9.2 | > 3.2 nM | < 101 | < 8.5 | > 3.2 nM | < 105 | < 8.5 |
| [Sar]RVYPHPT [SEQ ID NO: 7 (Sar-Arg-Val-Tyr-Pro-His-Pro-Thr)] | > 10000 nM | – | > 9.2 | > 0.6 nM | – | > 9.2 | > 3.2 nM | < 101 | < 8.5 | > 3.2 nM | < 105 | < 8.5 |
| [Sar]RVYPHP[dA] [SEQ ID NO: 60 (Sar-Arg-Val-Tyr-Pro-His-Pro-D-Ala)] | > 1.3 nM | < 103 | < 9.2 | > 0.6 nM | < 104 | < 9.2 | > 3.2 nM | < 101 | < 8.5 | > 3.2 nM | < 105 | < 8.5 |
| [Sar]RVY[Ac6c]HP[Tle] [SEQ ID NO: 56 (Sar-Arg-Val-Tyr-cyHex-His-Pro-AA02)] | > 1.3 nM | < 103 | < 9.2 | > 0.6 nM | < 104 | < 9.2 | > 3.2 nM | < 101 | < 8.5 | > 3.2 nM | < 105 | < 8.5 |
| [Sar]RVYPHPM [SEQ ID NO: 9 (Sar-Arg-Val-Tyr-Pro-His-Pro-Met)] | 5 nM | < 103 | < 9.2 | > 0.6 nM | < 104 | < 9.2 | > 3.2 nM | < 101 | < 8.5 | > 3.2 nM | < 105 | < 8.5 |
| [Sar]RVY[cyPen]HPA (reading uncertain; also: printed as Sar-Arg-Val-Tyr-cyPen-His-Pro-Ala) [SEQ ID NO: 3 (Sar-Arg-Val-Tyr-cyPen-His-Pro-Ala)] | > 10000 nM | – | > 9.2 | > 0.6 nM | – | > 9.2 | – | < 101 | – | – | < 105 | – |
| [Sar]RVYPHPV [SEQ ID NO: 6 (Sar-Arg-Val-Tyr-Pro-His-Pro-Val)] | 63.1 nM | < 103 | < 9.2 | > 0.6 nM | < 104 | < 9.2 | > 3.2 nM | < 101 | < 8.5 | > 3.2 nM | < 105 | < 8.5 |
| [Sar]RVY[Ac6c]HPY [SEQ ID NO: 55 (Sar-Arg-Val-Tyr-cyHex-His-Pro-Tyr)] | > 1.3 nM | < 103 | < 9.2 | > 0.6 nM | < 104 | < 9.2 | > 3.2 nM | < 101 | < 8.5 | > 3.2 nM | < 105 | < 8.5 |
| [Sar]RVYPHPL [SEQ ID NO: 5 (Sar-Arg-Val-Tyr-Pro-His-Pro-Leu)] | 3.2 nM | < 103 | < 9.2 | > 0.6 nM | < 104 | < 9.2 | > 3.2 nM | < 101 | < 8.5 | > 3.2 nM | < 105 | < 8.5 |
| [Sar]RVYPHPI [SEQ ID NO: 4 (Sar-Arg-Val-Tyr-Pro-His-Pro-Ile)] | 2.5 nM | < 103 | < 9.2 | > 0.6 nM | – | > 9.2 | > 3.2 nM | < 101 | < 8.5 | > 3.2 nM | < 105 | < 8.5 |
